Where no end group is shown, it is not given here.
Target: Arabidopsis thaliana O-acetylserine sulfhydrylase (OASS) (Arabidopsis thaliana, UniProt P47998 3-322)
Test: fluorescence polarisation

Sequence of Arabidopsis thaliana O-acetylserine sulfhydrylase (OASS) (P47998 3-322): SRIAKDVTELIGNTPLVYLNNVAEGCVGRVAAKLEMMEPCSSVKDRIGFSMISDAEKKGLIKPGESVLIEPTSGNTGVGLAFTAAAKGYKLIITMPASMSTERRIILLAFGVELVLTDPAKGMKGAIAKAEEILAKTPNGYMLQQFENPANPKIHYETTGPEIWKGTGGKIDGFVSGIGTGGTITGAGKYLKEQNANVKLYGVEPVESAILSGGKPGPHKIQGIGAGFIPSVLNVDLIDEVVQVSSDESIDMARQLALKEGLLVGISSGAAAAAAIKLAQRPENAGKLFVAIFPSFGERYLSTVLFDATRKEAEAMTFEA

B1: FITC-labeled SAT-derived peptide YLTEWSDYVI (FITC-SATp) (peptide)
peptide: YLTEWSDYVI
modifications: also: FITC conjugate, position not given here
- binding result: binds

— paper doi:10.1101/2024.02.03.578754 (bioRxiv, 2024)
